Laboratory results taken from patent WO2018178074A1 (dated 2018).

Key:
[1] = biological target: T1, human FAP (soluble, second analyte in SPR) (human, UniProt Q12884 26-760); test: SPR Biacore T200, biotinylated human 4-1BB Fc(kih) on SA chip, construct 200 nM, then human FAP 500 nM
T1 construct: also called human FAP protein

[2] = biological target: T2, human 4-1BB on cells (human, UniProt Q07011 24-255); test: flow cytometry on activated human PBMC (legend of Figure 14)
T2 construct: also called human 4-1BB on NF-kB-luciferase human-4-1BB HeLa clone 26 cells

[3] = biological target: T3, human FAP on cells (human, UniProt Q12884 1-760); test: flow cytometry on NIH/3T3-huFAP clone 39 cells
T3 construct: Natural FAP of the melanoma line WM266-4, or human FAP from vector pETR4921 in NIH/3T3 cells; also called huFAP on WM266-4 cells; human FAP on NIH/3T3-huFAP clone 39 cells

T2 sequence (Q07011 24-255 limits assumed): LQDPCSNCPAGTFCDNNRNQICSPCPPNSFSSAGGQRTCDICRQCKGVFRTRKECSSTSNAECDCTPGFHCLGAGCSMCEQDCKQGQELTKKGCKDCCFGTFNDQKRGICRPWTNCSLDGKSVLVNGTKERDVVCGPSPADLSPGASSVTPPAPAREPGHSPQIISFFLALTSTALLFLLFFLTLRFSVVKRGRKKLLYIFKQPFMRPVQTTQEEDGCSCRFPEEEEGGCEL

| binding result [1] | binding result [2] | binding result [3] | Binder |
| --- | --- | --- | --- |
| binds | binds | binds | 25G7 x FAP 3+3 (bispecific antibody, Trimer of three CMP chains, each paired with an anti-4-1BB light chain; no Fc; also called 3+3 25G7/28H1) not shown light: SSELTQDPAVSVALGQTVRITCQGDSLRSYYASWYQQKPGQAPVLVIYGKNNRPSGIPDRFSGSSSGNTASLTITGAQAEDEADYYCNSLDRRGMWVFGGGTKLTVRTVAAPSVFIFPPSDEQLKSGTASVVCLLNNFYPREAKVQWKVDNALQSGNSQESVTEQDSKDSTYSLSSTLTLSKADYEKHKVYACEVTHQGLSSPVTKSFNRGEC |
|  |  | no binding | 12B3 huIgG1 P329G LALA (antibody, V domains shown, Human IgG1 with Pro329Gly, Leu234Ala, Leu235Ala; also called 12B3 hulgGI P329G LALA; parental huIgG1 P329G LALA 12B3) VH: QVQLVQSGAEVKKPGSSVKVSCKASGGTFSSYAISWVRQAPGQGLEWMGGIIPIFGTANYAQKFQGRVTITADKSTSTAYMELSSLRSEDTAVYYCARSEFRFYADFDYWGQGTTVTVSS VL: not shown |
|  |  | no binding | 25G7 huIgG1 P329G LALA (antibody, V domains shown, Human IgG1 with Pro329Gly, Leu234Ala, Leu235Ala; also called 25G7 hulgGI P329G LALA; parental huIgG1 P329G LALA 25G7) VH: not shown VL: SSELTQDPAVSVALGQTVRITCQGDSLRSYYASWYQQKPGQAPVLVIYGKNNRPSGIPDRFSGSSSGNTASLTITGAQAEDEADYYCNSLDRRGMWVFGGGTKLTVLG |
